# In patent publication US20150232562A1 (Ablynx, published 2015):
# Target: T1, Epidermal Growth Factor Receptor 2 (HER2) (human, UniProt P04626 23-1255)
# T1 construct: whole, on cells; the cell line is named under assay; also called ErbB-2; ERBB2
# Assay: FMAT competition on SKBR3 cells, periplasmic extract
row,% blocking of Herceptin binding [%],Binder
1,> 90,"17E4 (VHH, C-term myc-His6 tag) VHH: EVQLVESGGGLVQPGGSLRLSCVASGFSLDDYGMTWVRQAPGKGLEWVSSINWSGTHTDYADSVKGRFVISRDNAKNTLFLQMNSLSPEDTAVYYCNQGWKIIPTDRRGHGTQVTVSS"
2,> 90,"17H3 (VHH, C-term myc-His6 tag) VHH: EVQLMESGGGLVQPGGSLRLSCVASGFSLDDYGMTWVRQAPGKGLEWVSSINWSGTHTDYADSVKGRFTISRDNAKNTLFLQMNSLRSEDTAVYYCNQGWKIVPTDRGGHGTQVTVSS"
3,> 90,"27D4 (VHH, C-term myc-His6 tag) VHH: EVQLVESGGSLVQPGGSLRLSCAASGFTFDDYAMTWVRQASGKGLEWVSSINWSGTHTDYADSVKGRFTISRNNANNTLYLQMNSLKSEDTAVYYCAKNWGDAGTTWFEKSGSAGQGTQVTVSS"
4,> 90,"17E7 (VHH, C-term myc-His6 tag) VHH: EVQLVESGGSLVQPGGSLRLSCAASGFTFDDYAMSWVRQVPGKGLEWVSSINWSGTHTDYADSVKGRFTISRNNANNTLYLQMNSLKSEDTAVYYCAKNWRDAGTTWFEKSGSAGQGTQVTVSS"
5,> 90,"17G8 (VHH, C-term myc-His6 tag) VHH: EVQLVESGGSLVPPGGSLRLSCAASGFTFDDYAMSWVRQAPGKGLEWVSSINWSGTHTGYTDSVKGRFTISRNNANNTLYLQMNSLKSEDTAVYYCAKNWGDAGTTWFEKSGSAGQGTQVTVSS"
6,> 90,"17D8 (VHH, C-term myc-His6 tag) VHH: EVQLVESGGSLVPPGGSLRLSCAVSGFTFDDYAMSWVRQAPGKGLEWVSSINWSGTHTDYTDSVKGRFTISRNNANNMLYLQMNSLKSEDTAVYYCAKNWRDAGTTWFEKSGSAGQGTQVTVSS"
7,> 90,"17E10 (VHH, C-term myc-His6 tag) VHH: EVQLVESGGSLVQPGGSLRLSCAASGFTFDDYAMTWVRQAPGKGLEWVSSINWSGTHTDCTDSVKGRFTISRNNANNTLYLQMNSLKSEDTAVYYCAKNWGDAGTTWFEKSGSAGQGTQVTVSS"
8,> 90,"30E10 (VHH, C-term myc-His6 tag) VHH: KVQLVESGGSLVPPGGSLRLSCAASGFTFDDYAMTWVRQAPGKGLEWVSSINWSGTHTDYTDSVKGRFTISRNNANNTLYLQMNSLKSEDTAVYYCAKNWGDAGTTWFEKSGSAGQGTQVTVSS"
9,> 90,"17E2 (VHH, C-term myc-His6 tag) VHH: EVQLVESGGSLVPPGGSLRLSCAASGFTFDDYGMSWVRQAPGKGLEWVSSINWSGTHTDYTDSVKGRFTISRNNANNTLYLQMNSLKSEDTAVYYCAKNWGDAGTTWFEKSGSAGQGTQVTVSS"
10,> 90,"39C1 (VHH, C-term myc-His6 tag) VHH: EVQLVESGGSLVPPGGSLRLSCAASGFTFDDYGMSWVRQAPGKGLEWVSSINWSGTHTDYTDSVKGRFTISRNNANNTLYLQMNSLKSEDTAVYYCAKNWGDAGTTWFEKSGSAGQGTQVTVSS"
11,> 90,"27G2 (VHH, C-term myc-His6 tag) VHH: EVQLVESGGSLVQPGGSLRLSCAASGFTFDDYAMTWVRQTPGKGLEWVSSINWSGTHTDYTDSVKGRFTISRNNANNTLYLQMNSLKSDDTAVYYCAKNWGDAGTTWFEKSGSAGPGTQVTVSS"
12,> 90,"27B1 (VHH, C-term myc-His6 tag) VHH: EVQLVESGGSLVQPGGSLRLSCAASGFTFDDYAMSWVRQAPGKGLEWISSINWSGTHTDYADSVKGRFTISRNNANNTLYLQMNNLKFEDTAVYYCAKNWRDAGTTWFEKSGSAGQGTQVTVSS"
13,> 90,"29H1 (VHH, C-term myc-His6 tag) VHH: EVQLVESGGSLVPPGGSLRLSCAASGFTFDDYAMSWVRQAPGKGLEWVSSINWSGTHTGYTDSVKGRFTISRNNANNTLYLQMNSLKSEDTAVYYCAKNWGDAGTTWFEKSGSAGQGTQVTVSS"

# More lines, now with the values behind:
row,Binder,% blocking of Herceptin binding [%]
1,"2E2 (VHH, C-term myc-His6 tag) VHH: EVQLVESGGGLVQPGGSLRLSCVASGFSLDDYGMTWVRQAPGKGLEWVSSINWSGTHTDYADSVKGRFTISRDNAKNTLFLQMNSLTPEDTAVYYCNQGWKIIPTDRRGHGTQVTVSS",> 90
2,"2H3 (VHH, C-term myc-His6 tag) VHH: EVQLVESGGGLVQPGGSLRLSCVASGFSLDDYGMTWVRQAPGKGLEWVSSINWSGTHTDYADSVKGRFTISRDNAKNTLFLQMNSLTPEDTAVYYCNQGWKIIPTDRRGHGTQVTVSS",> 90
3,"17D2 (VHH, C-term myc-His6 tag) VHH: EVQLVESGGGLVQPGGSLRLSCVASGFSLDDYGMTWVRQAPGKGLEWVSSINWSGTHTDYADSVKGRFTISRDNAKNTLFLQMNSLRSEDTAVYYCNQGWKIVPTDRGSHGTQVTVSS",> 90
4,"13D2 (VHH, C-term myc-His6 tag) VHH: EVQLVESGGGLVQPGGSLRLSCVASGFSLDDYGMTWVRQAPGKGLEWVSSINWSGTHTDYADSVKGRFTISRDNAKNTLFLQMNNLRSEDTAVYSCNQGWKIVPTDRGGHGTQVTVSS",> 90
5,"15C5 (VHH, C-term myc-His6 tag) VHH: EVQLVESGGGLVQPGGSLKLSCVASGFSLDDYGMTWVRQAPGKGLEWVSSINWNVTHTDYAYSVKGRFTISRDNAKNTLFLQMNSLTPEDTAVYYCNQGWKIIPTDRRGHGTQVTVSS",> 90
6,"13B10 (VHH, C-term myc-His6 tag) VHH: EVQLVESGGGLVQPGGSLRLSCVASGFSLDDYGMTWVRQAPGKGFEWVSSINWSGTHTDYADSVKGRFTISRDNAKNTLFLQMNSLSPEDTAVYYCNQGWKILPTNRGSHGTQVTVSS",> 90
7,"2E3 (VHH, C-term myc-His6 tag) VHH: EVQLVESGGGLVQPGGSLRLSCVASGFSLDDYGMTWVRQAPGKGLEWVSSINWSGTHTDYADSVKGRFTISRDNAKNTLFLQMNSLSPEDTAVYYCNQGWKILPTNRGSHGTQVTVSS",> 90
8,"15D1 (VHH, C-term myc-His6 tag) VHH: EVQLVESGGGLVQPGGSLRLSCVASGFSLDDYAMTWVRQAPGKGLEWVSSINWSGTHTDYADSVKGRFTISRDNAKNTLFLQMNSLNPEDTAVYYCNQGWKVWPTDRGTHGTQVTVSS",> 90
9,"15G8 (VHH, C-term myc-His6 tag) VHH: EVQLVESGGGLVQPGGSLKLSCVASGFSLDDYGMTWVRQAPGKGLEWVSSINWNGTHTDYAYSVKGRFTISRDNAKNTLFLQMNSLTPENTAVYYCNQGWKILPAERRGHGTQVTVSS",> 90
10,"13D11 (VHH, C-term myc-His6 tag) VHH: EVQLVESGGGLVHPGGSLRLSCVGSGFSLDDYGMTWVRRAPGKGLEWVSSINWSGTHTDYADSVKGRFTISRDNAKNTLFLQMNSLNPEDTAVYYCGQGWKIVPTNPRGHGTQVTVSS",> 90
11,"15C11 (VHH, C-term myc-His6 tag) VHH: EVQLVESGGGLVQPGGSLRLSCVASGFSLDDYGMTWVRQAPGKGLEWVSSINWSGTHTDYADSVKGRFTISRDNAKNTLFLQMNSLTPEDTAVYYCNQGWKILPAERRGHGTPVTVSS",> 90
12,"5G4 (VHH, C-term myc-His6 tag) VHH: EVQLVESGGGLVQPGGSLTLSCAGSGFIFDDYAMSWVRQAPGKGLEWVSSINWSGSHRNYADSVKGRFTISRDNAKKTLYLQMNSLKSEDTAVYYCATGWQSTTKNQNYWGQGTQVTVSS",> 90
13,"15B7 (VHH, C-term myc-His6 tag) VHH: EVQLVESGGGLVQPGGSLKLSCAASGFIFDDYAMSWVRQAPGKGLEWVSAINWSGSHRNYADSVKGRFTISRDNAKKTVYLQMNSLQSEDTAVYYCGTGWQSTTKSQGYWGQGTQVTVSS",> 90
14,"15G7 (VHH, C-term myc-His6 tag) VHH: EVQLVESGGGLVQPGGSLRLSCAASGFIFDDYAMSWVRQAPGKGLEWVSAINWSGTHRNYADSVKGRFTISRDNNKKTVYLQMNSLKSEDTAVYYCATGWQSTTKNQGYWGQGTQVTVSS",> 90
15,"2E5 (VHH, C-term myc-His6 tag) VHH: EVQLVESGGSLVQPGESLRLSCAASGFTFDDYAMSWVRQAPGKGLEWISSINWSGTHTDYADSVKGRFTISRNNANNTLYLQMNNLKFEDTAVYYCAKNWRDAGTTWFEKSGSAGQGTQVTVSS",> 90
16,"5F8 (VHH, C-term myc-His6 tag) VHH: EVQLVESGGSLVQPGGSLRLSCAASGFTFDDYALSWVRQAPGKGLEWISSINWSGTHTDYADSVKGRFTISRNNANNTLYLQMNNLKFEDTAVYYCAKNWRDAGTTWFEKSGSAGQGTQVTVSS",> 90
17,"15F9 (VHH, C-term myc-His6 tag) VHH: EVQLVESGGSLVQPGGSLRLSCAASGFTFDDYAMTWVRQAPGKGLEWVSSINWSGTHTDYTGSVKGRFTISRNNANNTLYLQMNSLKSDDTAVYYCAKNWGDAGTTWFEKSGSAGQGTQVTVSS",> 90
18,"15G1 (VHH, C-term myc-His6 tag) VHH: EVQLVESGGSLVPPGGSLRLSCAASGFTFDDYAMSWVRQAPGKGLEWVSSINWSGTHTDYTDSVKGRFTISRNNANNTLYLQMNSLKSEDTAVYYCAKNWRDAGTTWFEKSGSAGQGTQVTVSS",> 90
19,"13B2 (VHH, C-term myc-His6 tag) VHH: EVQLVESGGSLVQPGGSLRLSCAASGFTFDDYAMSWVRQAPGKGLEWISSINWSGTHKDYADSVKGRFTISRNNANNTLYLQMNNLKFEDTAVYYCAKNWRDAGTTWFEKSGSAGQGTQVTVSS",> 90
20,"13D8 (VHH, C-term myc-His6 tag) VHH: EVQLVESGGSLVQPGGSLRLSCAASGFTFDDYAMTWVRQASGKGLEWVSSINWSGTHTDYTDSVKGRFTISRNNANNTLYLQMNSLKSEDTAVYYCAKNWGDAGTTWFEKSGSAGQGTQVTVSS",> 90
